Source: patent US8247352B2, “Method of inhibiting ethylene production in plants” (The Regents of the University of California, priority 2005, dated 2012)

What was measured:
Test in all cases: Initial velocity assays (rate of oxygen consumption) with ACC or substrate analogs
Format in all cases: biochemical, Lycopersicon esculentum
Settings in all cases: other: O2 consumption, 25° C., pH 7.2, [Ascorbate] = 30 mM, [O2] = 258 μM, [CO2/bicarbonate] = 20 mM
[1] = substrate: CC(C)(N)C(=O)O
Description: (§1) Initial velocities were measured by the rate of oxygen consumption at 25° C., pH 7.2, using a YSI model 5300 biological oxygen monitor as previously described (Thrower 2001) with minor modifications. Standard reaction mixture (1 ml) contained 100 mM MOPS, pH 7.2, 20 mM NaHCO3, 100 mM NaCl, 20 mM sodium ascorbate, 0.1 mg/ml BSA, and ACC or substrate analog at various concentrations. Oxygen concentrations were kept at atmospheric concentration and determined using the oxygen monitor that was calibrated with air saturated water (258 μM oxygen at 25° C.). Reactions were initiated with 2 μL ACCO reconstituted with equimolar Fe(NH4)2(SO4)2. Data from initial velocity experiments with varying substrate concentrations were fitted to the Michaelis-Menton equation using the program Kalideograph.
(§2) The dependence of the initial velocity of oxygen consumption by ACCO:Fe(II) on the concentration of ACC or several substrate analogs was determined (Table 1). Either cyclic substrate analogs (including inhibitor Me-ACC, ACC-NH2, or ACC-OMe) or acyclic substrate analogs (AIB, D-Ala, or Gly) were used. […] Ascorbate and oxygen concentrations were kept constant at 30 mM and ˜258 μM, respectively.

[2] = substrate: C[C@@H](N)C(=O)O
Description: as §1, §2

[3] = substrate: NC1(C(=O)O)CC1
Description: as §1, §2

B1: ACC Oxidase (ACCO, ACO1) (Solanum lycopersicum) (protein)
chain: MENFPIINLEKLNGDERANTMEMIKDACENWGFFELVNHGIPHEVMDTVEKMTKGHYKKCMEQRFKELVASKGLEAVQAEVTDLDWESTFFLRHLPTSNISQVPDLDEEYREVMRDFAKRLEKLAEELLDLLCENLGLEKGYLKNAFYGSKGPNFGTKVSNYPPCPKPDLIKGLRAHTDAGGIILLFQDDKVSGLQLLKDEQWIDVPPMRHSIVVNLGDQLEVITNGKYKSVLHRVIAQTDGTRMSLASFYNPGSDAVIYPAKTLVEKEAEESTQVYPKFVFDDYMKLYAGLKFQAKEPRFEAMKAMESDPIASA
notes: made in house; host or cells: Escherichia coli BL21 (DE3)pLysS
Km [1]: 0.92 ± 0.29 mm | kcat [1]: 0.368 ± 0.0267 s⁻¹ | Km [2]: 4.42 ± 0.49 mm | kcat [2]: 0.497 ± 0.015 s⁻¹ | Km [3]: 0.099 ± 0.018 mm | kcat [3]: 0.607 ± 0.0233 s⁻¹
